Data published in the supplement of paper PMC9170038.

System: MS2 coat protein
Assay: apparent KD of MS2 coat protein; designed switch direction (-1 OFF switch, 1 ON switch): -1; higher = weaker reporter binding
How it was run: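 SNAP-549-labelled MS2 coat protein was titrated, doubling from 0.7 or 1.5 nM to 3 µM, over designed RNA switches transcribed on Illumina chips by stalled E. coli RNA polymerase. Runs were done without input, with 200 uM small-molecule ligand, or with an oligonucleotide input. Apparent KD is the per-design median over clusters of curve-fitted normalised fluorescence.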

[1] = Eterna round: R95, input ligand: FMN 200 uM
[2] = Eterna round: R95, input ligand: microRNA oligo, concentration not stated
[3] = Eterna round: R95, input ligand: none
[4] = input ligand: microRNA oligo, concentration not stated

Sequence: GUUUCACAUGAGGAUCACCCAUGUGAGGAUAUGUUUUUAAAAGCAAUAGUUUUUGAAAACAGAAGGCGCGUGAU [JR_Exc1_Sub008] (Eterna round: R97, puzzle: Exclusion 1)
- apparent KD of MS2 coat protein (input ligand: FMN 200 uM): 71.6 nM
- apparent KD of MS2 coat protein (input ligand: none): 60.5 nM

Sequence: GCAGAUGUAGUGAGGAUAUGCUCUACCUCGGUAGAGCAGAAGGCACAUGAGGAUCACCCAUGUGAUUCAUCUGC [Omei Ex4B B7] (Eterna round: R97, puzzle: Brourd's mod of Exclusion 4)
- apparent KD of MS2 coat protein (input ligand: FMN 200 uM): 211 nM
- apparent KD of MS2 coat protein (input ligand: none): 28.6 nM

Sequence: AAGACCUUUGUCAGGAUAUCAAGGCAAUUCGCCGGUGAGAAGGGACAUGAGGAUCACCCAUGUAAAGAAAAGAA [Rausedlave] (puzzle: Brourd's mod of Exclusion 4)
- apparent KD of MS2 coat protein [1]: 69 nM
- apparent KD of MS2 coat protein [2]: 20.1 nM
- apparent KD of MS2 coat protein [3]: 19.7 nM

Sequence: CCUGCACAUGAGGAUCACCCAUGUCAGGAUAUCUCGCCGUGUGGAGCAACACGGUAUAAGAGAAGGGACACGGG [Gegexeusre] (puzzle: Exclusion 1)
- apparent KD of MS2 coat protein [2]: 22.8 nM

Sequence: CACGCAUCAGGAUAUACAUGAGGAUCACCCAUGUGUUCCAGCUAGGAAACUAGCAAAUGUAGAAGGGAUGCGUG [Mat - Exclusion 3 - JL Mod - D7] (Eterna round: R97, puzzle: Exclusion 3)
- apparent KD of MS2 coat protein (input ligand: FMN 200 uM): 727 nM
- apparent KD of MS2 coat protein (input ligand: none): 208 nM

Sequence: AAUAACAGAGGAUAUACUAUUUUAUGUGUUUAUUGUUUUAAACAUGAGGAUCACCCAUGUAGAAGGCUGAUUGA [JMF 73] (puzzle: Exclusion 2)
- apparent KD of MS2 coat protein [2]: 65.5 nM

Sequence: GGGCCUCAUGUGAGGAUAUUGGAUGAGGUGCGAGACGAGAAGGCACAUGAGGAUCACCCAUGUAACUAACCAAA [Bimaen] (Eterna round: R97, puzzle: Brourd's mod of Exclusion 4)
- apparent KD of MS2 coat protein (input ligand: FMN 200 uM): 34.8 nM
- apparent KD of MS2 coat protein (input ligand: none): 85 nM

Sequence: AGAAUGCGAGGAUAUACAGCAAGAUAGCAAAAGACCCUCCAACAUGAGGAUCACCCAUGUAGAAGGCGCAUUCA [Eternabot (Original) Solution 19] (Eterna round: R97, puzzle: Exclusion 2)
- apparent KD of MS2 coat protein (input ligand: FMN 200 uM): 110 nM
- apparent KD of MS2 coat protein (input ligand: none): 109 nM

Sequence: AUAAUAAAACAUGAGGAUCACCCAUGUGGGUCGUUCUACUGGCAGGAUAUCGCCAGACAAUAAAACGAGAAGGGCCAGUUAAUA [Leanerrean] (Eterna round: R96, puzzle: Exclusion NG 3)
- apparent KD of MS2 coat protein (input ligand: FMN 200 uM): 168 nM
- apparent KD of MS2 coat protein [4]: 92.6 nM
- apparent KD of MS2 coat protein (input ligand: none): 86 nM

Sequence: GCAAGCUUUUCGAUCCUCGACAUGAGGAUCACCCAUGUGCUCGAAUUGUUUAGUACUAUCACGAAAGUGAUAGUACA [Sensor, turn off variant 1 v.3] (Eterna round: R97, puzzle: Sensor, turn-off variant 1)
- apparent KD of MS2 coat protein (input ligand: FMN 200 uM): 1570 nM
- apparent KD of MS2 coat protein (input ligand: none): 1570 nM

Sequence: UCGCUGCGAGGAUAUACAUGAGGAUCACCCAUGUACGGGUCCGGGUCUUUGUCGAUUGGUAGAAGGCGCAGUGA [JL Laongeedie mod 10] (puzzle: Exclusion 3)
- apparent KD of MS2 coat protein [2]: 50.3 nM

Sequence: CAGUACUGAGGAUAUACAUGAGGAUCACCCAUGUGUUCCAGCUAGGAAACUAGCAAUAGUAGAAGGCAGUACUG [salish99_ex3_r3_090x] (puzzle: Exclusion 3)
- apparent KD of MS2 coat protein [2]: 21.3 nM

Sequence: GCUUGCUUUUUGGUUUUCAACAUGAGGAUCACCCAUGUUCGUCUUGUGCUCGGGCUUGGGCGGUGUCCGGGUUUGGG [A 9%, less GC] (Eterna round: R97, puzzle: Sensor, turn-off variant 1)
- apparent KD of MS2 coat protein (input ligand: FMN 200 uM): 55.8 nM
- apparent KD of MS2 coat protein (input ligand: none): 60.6 nM

Sequence: CCAGCGUAUGUGAGGAUAUGCUGGUCCUUGGAUCAGCAGAAGGCACAUGAGGAUCACCCAUGUGGAAACGUUGG [JL bmx4 3.41] (puzzle: Brourd's mod of Exclusion 4)
- apparent KD of MS2 coat protein [2]: 16.4 nM

Sequence: GCUUGUAGAGGAUAUACAAGGGCCCACGCGGCGAGAGCCGCACAUGAGGAUCACCCAUGUAGAAGGCUACUAUA [JL-ex2-4.23 ViennaUCT mod] (Eterna round: R97, puzzle: Exclusion 2)
- apparent KD of MS2 coat protein (input ligand: FMN 200 uM): 125 nM
- apparent KD of MS2 coat protein (input ligand: none): 363 nM

Sequence: AAUACACAUGAGGAUCACCCAUGUUAGGAUAUUCGCGGGAAAGCUGUCAAAACGCCGAGGAGAAGGAACAGGAA [Excls1-X] (puzzle: Exclusion 1)
- apparent KD of MS2 coat protein [1]: 40 nM
- apparent KD of MS2 coat protein [2]: 33.7 nM
- apparent KD of MS2 coat protein [3]: 45.7 nM

Sequence: UGGCCACAUGAGGAUCACCCAUGUCAGGAUAUCGGAUAUAUUGUGGUUUUAAGACCAACGAGAAGGGACGGGUC [Eternabot (L1) Solution 9] (Eterna round: R97, puzzle: Exclusion 1)
- apparent KD of MS2 coat protein (input ligand: FMN 200 uM): 119 nM
- apparent KD of MS2 coat protein (input ligand: none): 139 nM

Sequence: UUUGUUUAUGUAGGAUAUGCCUGGCGUGCCUUCGCAGAAGGACAUGAGGAUCACCCAUGUAUUGCGGUCUGCGUUCAGAUCGCC [salish99_ExNG1_r4_028] (Eterna round: R96, puzzle: Exclusion NG 1)
- apparent KD of MS2 coat protein (input ligand: FMN 200 uM): 22.6 nM
- apparent KD of MS2 coat protein [4]: 16.1 nM
- apparent KD of MS2 coat protein (input ligand: none): 21 nM

Sequence: ACAUGAGGAUCACCCAUGUAAACAUGAUGGCUGAUGUAGAGCUAGGAUAUGAGUGAAUAUCUAUCUCAGAAGGAGCUUGACUGG [Deportation 46 - Jieux - Exclusion NG 3] (Eterna round: R96, puzzle: Exclusion NG 3)
- apparent KD of MS2 coat protein (input ligand: FMN 200 uM): 20 nM
- apparent KD of MS2 coat protein [4]: 15.8 nM
- apparent KD of MS2 coat protein (input ligand: none): 24.9 nM

Sequence: GCAUCCAAAGUGAGGAUAUACCUCUGGAUACAGAGGUAGAAGGCACAUGAGGAUCACCCAUGUUUCUAGGAUGC [Fiskers BMX 4 - 37] (puzzle: Brourd's mod of Exclusion 4)
- apparent KD of MS2 coat protein [1]: 21.2 nM
- apparent KD of MS2 coat protein [2]: 13.3 nM
- apparent KD of MS2 coat protein [3]: 13.9 nM

Sequence: AUAUAGAUAGUCAGGAUAUGCUAGUGAUAACAGUAGUAGAAGGGACAUGAGGAUCACCCAUGUAGAUAGUGCAC [Brourd's EX4 #4] (Eterna round: R97, puzzle: Brourd's mod of Exclusion 4)
- apparent KD of MS2 coat protein (input ligand: FMN 200 uM): 32.6 nM
- apparent KD of MS2 coat protein (input ligand: none): 22.5 nM

Sequence: CCCUCACUUGAGGAUCACCCAAGUCAGGAUAUCUCACCCAUCCUACGGGACGGGUCACAGAGAAGGGACUAAAA [Isdius] (Eterna round: R97, puzzle: Exclusion 1)
- apparent KD of MS2 coat protein (input ligand: FMN 200 uM): 37.3 nM
- apparent KD of MS2 coat protein (input ligand: none): 20 nM

Sequence: GGAGAGGGAGGAUAUGCGCCAACAAACAUGAGGAUCACCCAUGUGGUGCUCCAAGAAAGGGUAGAAGGCCCUCUCC [Default title] (puzzle: Exclusion 5)
- apparent KD of MS2 coat protein [1]: 619 nM
- apparent KD of MS2 coat protein [2]: 275 nM
- apparent KD of MS2 coat protein [3]: 295 nM

Sequence: AUAACAUGCUGGUGAUCAUACAUGAGGAUCACCCAUGUAACAAGCUUUUUGCUCGUCUUAUAAGAUCACCAGCAUGU [Stov1/9-A2] (Eterna round: R97, puzzle: Sensor, turn-off variant 1)
- apparent KD of MS2 coat protein (input ligand: FMN 200 uM): 14.8 nM
- apparent KD of MS2 coat protein (input ligand: none): 15.4 nM

Sequence: AAAAAGGUAGGAUAUCCACUUUAAAACAUGAGGAUCACCCAUGUAAAACCACAUGAAAAAGGAGAAGGACCAAAAA [AK-MS2ROC-r4-exclusion5-2] (Eterna round: R97, puzzle: Exclusion 5)
- apparent KD of MS2 coat protein (input ligand: FMN 200 uM): 24.7 nM
- apparent KD of MS2 coat protein (input ligand: none): 26 nM

Sequence: CCCUCAUGACGCACAUGAGGAUCACCCAUGUAUAAACCGUCAGAGGAUAUCCGCCGGUCACCGAAGGAGAAGGCUGACCUAAAG [Quinlaan] (Eterna round: R96, puzzle: Exclusion NG 3)
- apparent KD of MS2 coat protein (input ligand: FMN 200 uM): 21.2 nM
- apparent KD of MS2 coat protein [4]: 11 nM
- apparent KD of MS2 coat protein (input ligand: none): 18.2 nM
